Measurements: patent US7105647 (WISCONSIN ALUMNI RESEARCH FOUNDATION, dated 2006)

B1: human aryl hydrocarbon receptor (AHR), full length (receptor, UniProt P35869 1-848, looked up)
chain: MNSSSANITYASRKRRKPVQKTVKPIPAEGIKSNPSKRHRDRLNTELDRLASLLPFPQDVINKLDKLSVLRLSVSYLRAKSFFDVALKSSPTERNGGQDNCRAANFREGLNLQEGEFLLQALNGFVLVVTTDALVFYASSTIQDYLGFQQSDVIHQSVYELIHTEDRAEFQRQLHWALNPSQCTESGQGIEEATGLPQTVVCYNPDQIPPENSPLMERCFICRLRCLLDNSSGFLAMNFQGKLKYLHGQKKKGKDGSILPPQLALFAIATPLQPPSILEIRTKNFIFRTKHKLDFTPIGCDAKGRIVLGYTEAELCTRGSGYQFIHAADMLYCAESHIRMIKTGESGMIVFRLLTKNNRWTWVQSNARLLYKNGRPDYIIVTQRPLTDEEGTEHLRKRNTKLPFMFTTGEAVLYEATNPFPAIMDPLPLRTKNGTSGKDSATTSTLSKDSLNPSSLLAAMMQQDESIYLYPASSTSSTAPFENNFFNESMNECRNWQDNTAPMGNDTILKHEQIDQPQDVNSFAGGHPGLFQDSKNSDLYSIMKNLGIDFEDIRHMQNEKFFRNDFSGEVDFRDIDLTDEILTYVQDSLSKSPFIPSDYQQQQSLALNSSCMVQEHLHLEQQQQHHQKQVVVEPQQQLCQKMKHMQVNGMFENWNSNQFVPFNCPQQDPQQYNVFTDLHGISQEFPYKSEMDSMPYTQNFISCNQPVLPQHSKCTELDYPMGSFEPSPYPTTSSLEDFVTCLQLPENQKHGLNPQSAIITPQTCYAGAVSMYQCQPEPQHTHVGQMQYNPVLPGQQAFLNKFQNGVLNETYPAELNNINNTQTTTHLQPLHHPSEARPFPDLTSSGFL
notes: Full length in yeast (PRSAHR) and in the Hsp90 co-IP (huAHR); also called huAHR; Ah receptor

Legend:
Hsp90 = molecular target: T1, Hsp90; experiment: co-IP of 35S-labelled in vitro translated protein with anti-Hsp90 antibody 3G3p90, phosphoimager
T1 construct: Endogenous Hsp90 of the translation lysate
Method: Coimmunoprecipitation with Hsp90. Each MOP construct was in vitro translated in the presence of [^35S]-methionine in a TNT coupled transcription/translation system (Promega). Hsp90 immunoprecipitation assays were performed with monoclonal antibody 3G3p90 or a control IgM antibody, TEPC 183 (Sigma) essentially as described. Each immunoprecipitation was subjected to SDS-PAGE, and the resulting gel was dried. The level of radioactivity in each coprecipitated protein band was quantified on a Bio-Rad GS-363 Molecular Imager System. The amount of protein immunoprecipitated with the Hsp90 antibody is presented as a percentage of the amount of murine AHR immunoprecipitated in parallel assays.
4. Interaction of MOPs with Hsp90. In an effort to assess a MOP's ability to interact with Hsp90, we performed coimmunoprecipitation assays with anti Hsp90 antibodies. Given the remarkable stability of the Hsp90 complex with the AHR from the C57BL/6J mouse, we used this receptor species as a reference and compared all interactions relative to it. As additional controls, we immunoprecipitated ARNT and the human AHR as negative and positive controls, respectively. Despite our ability to readily detect huAHR-Hsp90 interactions, we were unable to detect ARNT, MOP2 or MOP5 interactions with Hsp90. In contrast, huAHR, MOP1, MOP3 and MOP4 all immunoprecipitated with HSP90-specific antisera. […]

[1] = molecular target: T2, AH receptor nuclear translocator (ARNT), full length (human, UniProt P27540 1-789); experiment: functional data, assay not described
T2 construct: Full length: in vitro translated, expressed in yeast (PL574) or transfected; Endogenous ARNT in the Hep3B experiment; also called huARNT; hARNT

[2] = molecular target: T2, AH receptor nuclear translocator …; experiment: yeast interaction trap (mating), X-Gal overlay
Method: Interaction Screen Against Known bHLH-PAS Proteins. LexAbHLH-PAS fusion proteins ("baits") of HIF1α, HIF2α, MOP3, MOP4, AHR, ARNT, and CLOCK were transformed into the L40 strain of yeast. The full-length ("fish") MOP3 and ARNT plasmids were transformed into the AMR70 yeast strain, and these transformants were plated onto yeast complete media plates (Kaiser et al., 1994, in *Methods in Yeast Genetics*, Cold Spring Harbor Press, Plainview, N.Y.). The L40 yeast harboring the bait constructs were replica plated onto these yeast complete media plates and mated for 8 hr at 30° C. The plates were then replica plated onto selective media and grown for an additional day at 30° C. 5-Bromo-4-chloro-3-indolyl […]-galactoside (X-Gal) overlay assays were performed to determine the relative expression of the lacZ reporter gene (Bohen and Yamamoto, 1993, PNAS 90: 11424–11428). Western blot analysis, using LexA-specific sera, was performed on extract from each transformant to confirm expression of the fusion protein (see Example 1).

[3] = molecular target: T2, AH receptor nuclear translocator …; experiment: co-IP of 35S-labelled in vitro translated protein with ARNT-specific antiserum
Method: (§1) 1. Interaction of MOPs with the AHR and ARNT in vitro; Coimmunoprecipitation experiments. We first performed coimmunoprecipitation experiments to determine if MOPs 1–4 had the capacity to interact with either the AHR or ARNT in vitro. These proteins were expressed in a reticulocyte lysate system in the presence of ^35S-methionine and then incubated in the presence or absence of the AHR or ARNT. Complex formation was assayed by coimmunoprecipitation with AHR or ARNT specific antisera, followed by quantitation of coimmunoprecipitated ^35S-labeled MOP by phosphoimage analysis. Interactions were identified by a reproducible increase in an AHR or ARNT-dependent precipitation of MOP protein. Because we have observed considerable variability in this coimmunoprecipitation assay, each experiment was performed at least three times.

[4] = molecular target: B1; experiment: co-IP of 35S-labelled in vitro translated protein with AHR-specific antiserum
Method: as §1

T2 sequence (P27540 whole entry): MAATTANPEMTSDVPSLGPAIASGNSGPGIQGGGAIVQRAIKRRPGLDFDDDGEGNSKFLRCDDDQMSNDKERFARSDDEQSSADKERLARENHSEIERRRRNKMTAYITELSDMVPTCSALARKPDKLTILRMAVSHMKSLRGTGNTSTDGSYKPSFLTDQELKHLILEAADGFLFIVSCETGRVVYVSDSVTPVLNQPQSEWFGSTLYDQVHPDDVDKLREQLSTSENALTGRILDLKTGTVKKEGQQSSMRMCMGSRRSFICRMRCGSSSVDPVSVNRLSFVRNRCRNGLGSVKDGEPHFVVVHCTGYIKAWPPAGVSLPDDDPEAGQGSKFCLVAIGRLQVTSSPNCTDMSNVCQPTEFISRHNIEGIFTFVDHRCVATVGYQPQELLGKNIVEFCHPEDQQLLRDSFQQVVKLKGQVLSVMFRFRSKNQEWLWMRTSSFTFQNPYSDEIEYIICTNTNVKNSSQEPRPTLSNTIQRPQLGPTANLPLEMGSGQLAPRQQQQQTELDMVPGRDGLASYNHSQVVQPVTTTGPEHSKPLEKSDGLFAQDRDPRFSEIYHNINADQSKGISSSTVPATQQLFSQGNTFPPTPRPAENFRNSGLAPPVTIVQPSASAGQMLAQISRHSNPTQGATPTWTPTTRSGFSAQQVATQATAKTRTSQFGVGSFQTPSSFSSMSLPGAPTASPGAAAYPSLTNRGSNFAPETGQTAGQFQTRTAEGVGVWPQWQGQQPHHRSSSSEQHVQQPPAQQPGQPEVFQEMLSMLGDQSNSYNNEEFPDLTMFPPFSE

Row | Binder | percent of the amount of murine AHR immunoprecipitated with the Hsp90 antibody (Hsp90) [%] | binding result [2] | other results
1 | B1 | 53 | – | –
2 | MOP6 (other, Mentioned only in the general description) MAPTKPSFQQDPSRRERLQALRKEKSRDAARSRRGKENFEFYELAKLLPLPAAITSQLDKASIIRLTISYLKMRDFANQGDPPWNLRMEGPPPNTSVKGAQRRRSPSALAIEVFEAHLGSHILQSLDGFVFALNQEGKFLYISETVSIYLGLSQVELTGSSVFDYVHPGDHVEMAEQLGMKLPPGRGLLSQGTAEDGASSASSSSQSETPEPVESTSPSLLTTDNTLERSFFIRMKSTLTKRGVHIKSSGYKVIHITGRLRLRVSLSHGRTVPSQIMGLVVVAHALPPPTINEVRIDCHMFVTRVNMDLNIIYCENRISDYMDLTPVDIVGKRCYHFIHAEDVEGIRHSHLDLLNKGQCVTKYYRWMQKNGGYIWIQSSATIAINAKNANEKNIIWVNYLLSNPEYKDTPMDIAQLPHLPEKTSESSETSDSESDSKDTSGITEDNENSKSDEKGNQSENSEDPEPDRKKSGNACDNDMNCNDDGHSSSNPDSRDSDDSFEHSDFENPKAGEDGFGALGAMQIKVERYVESESDLRLQNCESLTSDSAKDSDSAGEAGAQASSKHQKRKKRRKRQKGGSASRRRLSSASSPGGLDAGLVEPPRLLSSPNSASVLKIKTEISEPINFDNDSSIWNYPPNREISRNESPYSMTKPPSSEHFPSPQGGGGGGGGGGGLHVAIPDSVLTPPGADG | – | – | binding result [1]: binds
3 | LexA control (other, UniProt P0A7C2 1-202, looked up) MKALTARQQEVFDLIRDHISQTGMPPTRAEIAQRLGFRSPNAAEEHLKALARKGVIEIVSGASRGIRLLQEEEEGLPLVGRVAAGEPLLAQQHIEGHYQVDPSLFKPNADFLLRVSGMSMKDIGIMDGDLLAVHKTQDVRNGQVVVARIDDEVTVKRLKKQGNKVELLPENSEFKPIVVDLRQQSFTIEGLAVGVIRNGDWL | – | no binding | –
4 | MOP4 (other, also called huMOP4) MDEDEKDRAKRASRNKSEKKRRDQFNVLIKELSSMLPGNTRKMDKTTVLEEVIGFLQKHNEVSAQTEICDIQQDWKPSFLSNEEFTQLMLEALDGFIIAVTTDGSIIYVSDSITPLLGHLPSDVMDQNLLNFLPEQEHSEVYKILSSHMLVTDSPSPEYLKSDGDLEFYCHLLRGSLNPKEFPTYEYIKFVGNFRSYNNVPSPSCNGFDNTLSRPCRVPLGKEVCFIATVRLATPQFLKEMCIVDEPLEEFTSRHSLEWKFLFLDHRAPPIIGYLPFEVLGTSGYDYYHIDDLELLARCHQHLMQFGKGKSCCYRFLTKGQQWIWLQTHYYITYHQWNSKPEFIVCTHSVVSYADVRVERRQELALEDPPSEALHSSALKDKGSSLEPRQHFNALDVGASGLNTSHSPSASSRSSHKSSHTAMSEPTSTPTKLMAEASTPALPRSATLPQELPVPGLSQAATMPAPLPSPSSCDLTQQLLPQTVLQSTPAPMAQFSAQFSMFQTIKDQLEQRTRILQANIRWQQEELHKIQEQLCLVQDSNVQMFLQQPAVSLSFSSTQRPEAQQQLQQRSAAVTQPQLGAGPQLPGQISSAQVTSQHLLRESSVISTQGPKPMRSSQLMQSSGRS | 31 | – | binding result [3]: no binding; binding result [4]: no binding
5 | LexAbHLH-PAS fusion of CLOCK (PL828) (other, UniProt P0A7C2 1-202, looked up, range 1-202;domain: bHLH-PAS domains; also called LexA fusion of CLOCK) MKALTARQQEVFDLIRDHISQTGMPPTRAEIAQRLGFRSPNAAEEHLKALARKGVIEIVSGASRGIRLLQEEEEGLPLVGRVAAGEPLLAQQHIEGHYQVDPSLFKPNADFLLRVSGMSMKDIGIMDGDLLAVHKTQDVRNGQVVVARIDDEVTVKRLKKQGNKVELLPENSEFKPIVVDLRQQSFTIEGLAVGVIRNGDWLMLFTVSCSKMSSIVDRDDSSIFDGLVEEDDKDKAKRVSRNKSEKKRRDQFNVLIKELGSMLPGNARKMDKSTVLQKSIDFLRKHKEITAQSDASEIRQDWKPTFLSNEEFTQLMLEALDGFFLAIMTDGSIIYVSESVTSLLEHLPSDLVDQSIFNFIPEGEHSEVYKILSTHLLESDSLTPEYLKSKNQLEFCCHMLRGTIDPKEPSTYEYVKFIGNFKSLNSVSSSAHNGFEGTIQRTHRPSYEDRVCFVATVRLATPQFIKEMCTVEEPNEEFTSRHSLEWKFLFLDHRAPPIIGYLPFEVLGTSGYDYYHVDDLENLAKCHEHLMQYGKGKSCYYRFLTKGQQWIWLQTHYYITYHQWNSRPEFIVCTHTVVSYAEVRAERRRELG | – | no binding | –
